In patent publication US20260104418A1 (published 2026):
Substitutions are numbered along the chain they refer to. Values belong to the binder of their own block, whether it stands above or below them.

How the values were obtained:
[1] = biological target: T1, human Claudin-18.2 (CLDN18.2) (human); experiment: FACS titration of AF647-labelled IgG on HEK293T cells overexpressing human CLDN18.2 (clone C12)
T1 construct: On cells: endogenous on HUPT4 and SNU601; also called human CLDN18.2
Description: (§1) CLDN18.2-expressing cells were used in FACS assays to determine the CLDN18.2 antibody's ability to bind to CLDN18.2 on the surface of cells and to cross-react with other CLDN family members. HEK293 T cells engineered to express human CLDN18.2 fused to GFP, mouse CLDN18.2 fused to GFP, CLDN18.1-GFP, or GFP alone (without CLDN18.2) were used as artificial models of CLDN18.2 expression. HUPT4, SNU601, and PATU8988S cells were used as endogenous models of CLDN18.2 expression.
(§2) For each type of cell tested and for each mAb, cells were detached from the surface of the culture flasks by versene (instead of trypsin) in order to protect the cell surface proteins. The detached cells were then incubated with Alexa Fluor®-labeled CLDN18.2 mAbs for 30 min in the dark on ice at a pre-determined concentration. […] After washing, the cells were read by a BD Accuri™ Flow Cytometer C6 to detect antibody-antigen protein binding in channel FL4H. Each antibody was tested at varied concentrations to establish a dose-fluorescence curve.

[2] = biological target: T1, human Claudin-18.2 (CLDN18.2); experiment: FACS titration of AF647-labelled IgG on SNU601 cells (endogenous CLDN18.2)
Description: as §1, §2

[3] = biological target: T1, human Claudin-18.2 (CLDN18.2); experiment: FACS titration of AF647-labelled IgG on HUPT4 cells (endogenous CLDN18.2)
Description: as §1, §2

[4] = biological target: T1, human Claudin-18.2 (CLDN18.2); experiment: FACS, 1.5 ug antibody, HUPT4 cells (endogenous CLDN18.2)
Protocol: (§3) FAGS assays were carried out to determine relative antigen binding strengths of the humanized antibodies (at either 1.5 ag or 0.3 rag) for binding to CLDN18.2 as expressed by the indicated cancer cell lines.

[5] = biological target: T1, human Claudin-18.2 (CLDN18.2); experiment: FACS, 1.5 ug antibody, HEK293T-CLDN18.2 C12 clone
Protocol: as §3

B1: Ab 301 (antibody, V domains shown)
VH: VVQLQQSGPELVKPGASVKMSCKASGYTFTSFLIHWVRQKPGLGLEWIGYINPYDYGINYNVKFMDKVTLTSDKTSSTAYMELSSLTSADSAIYYCTRGDYWGQGTSVIVSS
VL: DIVMTQSPSSLAVTTGEQVTMNCKSSQSLLNSGNQKNYLTWYQQKTGQSPKLLIYWASTRQSGVPDRFTGSGSGTDFTLTISSVQAEDLAVYYCLNDYGFPLTFGAGTKLELK
notes: Full-length IgG from ExpiCHO
EC50 [1]: 22.1 nM
EC50 [2]: 256 nM
EC50 [3]: 143 nM

B5: Ab 369 (antibody, V domains shown)
VH: DVKLVESGGGLVKPGGSLKLSCAASGFTFTSYTMSWVRQTPEKRLEWVATIIIGGSYTYYPDSVKGRFTISRDNAKNTLYLQMSSLKSEDTAMYYCTRLVKGNAMDYWGQGTSVTVSS
VL: DILMTQSPSSLTVTAGEKVTMTCKSSQSLLNSGNQKNYLTWYQQKPGQPPKLLIYWASSRESGVPDRFTGSGSGTDFTLTISSVQAEDLAVYYCQNDYSYPFTFGAGTKLELK
notes: Full-length IgG from ExpiCHO
EC50 [1]: 40 nM
EC50 [2]: 276 nM
EC50 [3]: 265 nM

B6: Ab 384 (antibody, V domains shown)
VH: QVQLQQSGAELARPGASVKLSCKASDYTFTSYVISWVKQRTGQGLEWIGEIYPRNGNTYYNEKFKGKATLTADKSSSTAYMELRSLTSEDSAVYFCARSYYGNSFAYWGQGTLVTVSA
VL: B5 VL with L3V, T22S, K45R, S59T, Y93C, D97N, S99Y, A106G, E111G, L112I
notes: Full-length IgG from ExpiCHO
EC50 [1]: 595 nM

B8: Ab 331 (antibody, V domains shown)
VH: EVQLQQSGPELVKPGASVRMSCKASGYTFTSYIMHWVKQKPGQGPEWMGYINPYNDGTNYNEKFKDKATLTSDKSSSTAYMDLSSLTSEDSAVYYCTRGDYWGQGTSVTVSS
VL: B5 VL with L3V, T22S, I54F, S59T, R60K, E61K, G74R, Q95L, Y100F, F102L
notes: Full-length IgG from ExpiCHO
EC50 [1]: 23.1 nM
EC50 [2]: 106 nM
EC50 [3]: 606 nM

B9: Ab 358 (antibody, V domains shown)
VH: VVQLVESGGDFVQPGGSRKLSCAVSGFTFSSFGMHWVRQAPEKGLEWVAYISSGTTNIYYADTVKGRFTVSRDNPKNSLFLHMTSLRSEDTAMYYCVRSGYYGNSLDYWGQGTPLTVSS
VL: DIVMTQSPSSLTVTAGEKVTMSCKSSQSLFNSGNQRNYLTWYQQKPGQPPKLLIYWASTRESGVPDRFTGSGSGTGFTLTISSVQAEDLAFYYCQNVYIYPLTFGLGTKLELR
notes: Full-length IgG from ExpiCHO
EC50 [1]: 54.5 nM
EC50 [2]: 414 nM
EC50 [3]: 111 nM

B10: Ab 360 (antibody, V domains shown)
VH: VVQLQQSGPELVKPGASVKMSCKASGYTFTSYLMHWVRQKPGLGLDWIGYINPYNDGTNYNAKFIDKATLTSDKTSSTAYMELSSLTSEDSAIYYCTRGDYWGQGTSVTVSS
VL: B1 VL with T15A, N22S, T46P, S49P, T59I
notes: Full-length IgG from ExpiCHO; also called 360-Chim
EC50 [1]: 39.7 nM
EC50 [2]: 119 nM
EC50 [3]: 693 nM

B13: Ab 347 (antibody, V domains shown)
VH: EVQLQQSGPELVKPGASVKMSCKASGYTFTSYLIHWVKQKPGQGLEWIGYINPYNDATYYNEKFKAKATLTSDKSSSTAYMELSSLTSEDTAIYYCTRGDYWSQGTSVTVSS
VL: B5 VL with L3V, T22S, S59T, E61Q, A90T, Q95L, Y100F, F102L
notes: Full-length IgG from ExpiCHO
EC50 [1]: 70.4 nM
EC50 [2]: 276 nM
EC50 [3]: 294 nM

B14: Ab 376 (antibody, V domains shown)
VH: B5 VH with T30S, E46Y, I52S, I53S, G55V, V100T
VL: B5 VL with L3V, T22S, S59T, D76G
notes: Full-length IgG from ExpiCHO
FACS signal (relative antigen binding strength) [4]: 31300
EC50 [1]: 52.1 nM
FACS signal (relative antigen binding strength) [5]: 137000

B15: Ab 307 (antibody, V domains shown)
VH: B5 VH with T30S, T115A
VL: B5 VL with L3V, A15T, T22S, T40S, K45I, I54F, S59T, S83N, K113R
notes: Full-length IgG from ExpiCHO
EC50 [1]: 39.1 nM
EC50 [2]: 221 nM
EC50 [3]: 336 nM

Now from value to binder:

EC50 [1]: 597 nM
B2: Ab 416 (antibody, V domains shown)
VH: EFQLQQSGPELVKPGASVKISCKASVYSFTGYNMNWVKQSNGKSLEWIGVINPNYGNTNYNQRFKGKATLTVDQSSSTAYMQLNSLTSEDSAVYYCARSEDYYNIRGASWGQGTLVTVSA
VL: QIVLTQSPAIMSASPGQKVTITCSASSTINYMHWYQQKLGSSPKLWIYDTSKLAPGVPARFSGSGSGTSYSLTISSMEAEDAASYFCHQWSSYPPTFGSGTKLELK
notes: Full-length IgG from ExpiCHO

FACS signal (relative antigen binding strength) [4]: 2450
EC50 [1]: 1090 nM
FACS signal (relative antigen binding strength) [5]: 80600
B3: Reference antibody 1 (Benchmark 1-175D10) (antibody, V domains shown)
VH: QVQLQQPGAELVRPGASVKLSCKASGYTFTSYWINWVKQRPGQGLEWIGNIYPSDSYTNYNQKFKDKATLTVDKSSSTAYMQLSSPTSEDSAVYYCTRSWRGNSFDYWGQGTTLTVSS
VL: B5 VL with L3V, T22S, S59T, A106S, L112I

EC50 [1]: 31.2 nM
EC50 [2]: 270 nM
EC50 [3]: 97.8 nM
B4: Ab 400 (antibody, V domains shown)
VH: QVQLKESGPGLVAPSQSLSITCTVSGFSLNSYGVSWVRQPPGKGLEWLGVIWGDGSTNYHSALKSRLNINKDKSKSQVFLKLNSLQTDDTATYYCARPTRGNAMDYWGQGTSVTVSS
VL: DVVMTQSPSSLTVTAGEKVTMNCKSSQSLLNSGNQRSYLTWYQQKPGQPPKLLIYWASTRESGAPDRFTGSGSGADFTLTISSVQAEDLAIYYCQNNYNYPFTFGSGTKLEIK
notes: Full-length IgG from ExpiCHO

EC50 [1]: 446 nM
B7: Ab 392 (antibody, V domains shown)
VH: EVQLQQSGPELVKPGASVKMSCKASGFTFTSYVMHWVKQKSGQGLEWIGYINPYNDDIKYNAKFEDKATLTSDRSSSTAYMELSSLTSDDSAVYFCTRGDYWGQGTTLTVSS
VL: B1 VL with A12T, Q18K, N22D, T46S, S49P, T59I, Q61K, G99S
notes: Full-length IgG from ExpiCHO

FACS signal (relative antigen binding strength) [4]: 11100
EC50 [1]: 1740 nM
FACS signal (relative antigen binding strength) [5]: 125000
B11: Reference antibody 2 (Benchmark 2-163E12) (antibody, V domains shown)
VH: QVQLQQSGAELARPGASVKLSCKASGYTFTDYYINWVKQRTGQGLEWIGEIYPGSGNTYYNEKFKGKATLTADKSSSTAYMQLSSLTSEDSAVYFCARSYGAFDYWGQGTTLTVSS
VL: B5 VL with L3V, T22S, S59T, F102L

EC50 [1]: 42.3 nM
EC50 [2]: 245 nM
EC50 [3]: 348 nM
B12: Ab 432 (antibody, V domains shown)
VH: B6 VH with V2I, G15R, D26G, Y32D, T41P, I51S, P53L, K63N
VL: B5 VL with L3V, G16R, T22N, S26T, S59T, D97A, S99Y, A106G, L112I
notes: Full-length IgG from ExpiCHO; also called 432-Chim

EC50 [1]: 605 nM
B16: Ab 409 (antibody, V domains shown)
VH: QVQLQQSGAELARPGASVKLSCKASGYTFTSYGISWVKQRTGQGLEWIGEISPRSGNTYYNEKFKGKATLTADKSSSTAYMELRSLTSEDSAVYFCATGVITTVIPTDWYFDVWGTGTTVTVSS
VL: DIQMTQTTSSLSASLGDRVTISCRASQDISNYLNWYQQKPDGTVKLLIYYTSRLHSGVPSRFSGSGSGTDYSLTISNLEPEDIATYYCQHYSKLPPTFGSGTKLEIK
notes: Full-length IgG from ExpiCHO; 38 is used
